From patent publication US20050214312A1 come the findings set out here.

This test deals with recombinant human or murine heat shock protein 70 (hsp70) (human or murine).

Regarding RGYVYQGL (modifications not checked) [RGYVYQGL (VSV nucleoprotein amino acids 52-59)], the Kd – broadly, the constant that tells how readily two partners part at equilibrium – turned out to be 82 µM.
